{"source": "paper PMC9723548", "about": "“Sulfate adenylyl transferase kinetics and mechanisms of metabolic inhibitors of microbial sulfate respiration” (ISME Communications, 2021)", "key": {"[1]": {"target": "T1, sulfate adenylyl transferase (Sat) / ATP sulfurylase (Oleidesulfovibrio alaskensis, UniProt Q30Z34)", "T1 construct": "gene Dde_2265", "T1 sequence (Q30Z34 1-427)": "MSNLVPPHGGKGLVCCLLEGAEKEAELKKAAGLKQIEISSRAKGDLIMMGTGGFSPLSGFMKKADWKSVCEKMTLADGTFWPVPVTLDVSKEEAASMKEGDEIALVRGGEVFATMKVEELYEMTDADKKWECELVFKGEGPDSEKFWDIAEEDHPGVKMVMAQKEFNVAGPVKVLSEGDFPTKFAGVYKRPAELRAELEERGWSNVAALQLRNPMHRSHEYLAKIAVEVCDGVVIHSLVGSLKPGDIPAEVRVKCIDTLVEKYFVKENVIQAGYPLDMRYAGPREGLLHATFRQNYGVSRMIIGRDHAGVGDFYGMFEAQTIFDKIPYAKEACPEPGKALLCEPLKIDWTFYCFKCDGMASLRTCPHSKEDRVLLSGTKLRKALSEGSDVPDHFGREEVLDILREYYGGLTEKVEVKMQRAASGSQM", "test": "pyrophosphate accumulation, modified molybdenum blue assay"}, "purified protein [2]": {"substrate": "O=[Se](=O)(O)O", "test": "purified protein"}, "purified protein [3]": {"substrate": "[O]=[Cr](=[O])([OH])[OH]", "test": "purified protein", "conditions": "alternative substrate in place of sulfate; co-substrate ATP"}}}
{"molecule": "[O-][Cl+2]([O-])O", "note": "[ClO3^−]", "values": [{"measurement": "Ki", "setting": "[1]", "value": "316 ± 17", "unit": "µM"}]}
{"molecule": "O=[N+]([O-])O", "note": "[NO3^−]", "values": [{"measurement": "Ki", "setting": "[1]", "value": "3600 ± 270", "unit": "µM"}]}
{"molecule": "sulfate adenylyl transferase (Sat) / ATP sulfurylase (Oleidesulfovibrio alaskensis G20) (protein) MSNLVPPHGGKGLVCCLLEGAEKEAELKKAAGLKQIEISSRAKGDLIMMGTGGFSPLSGFMKKADWKSVCEKMTLADGTFWPVPVTLDVSKEEAASMKEGDEIALVRGGEVFATMKVEELYEMTDADKKWECELVFKGEGPDSEKFWDIAEEDHPGVKMVMAQKEFNVAGPVKVLSEGDFPTKFAGVYKRPAELRAELEERGWSNVAALQLRNPMHRSHEYLAKIAVEVCDGVVIHSLVGSLKPGDIPAEVRVKCIDTLVEKYFVKENVIQAGYPLDMRYAGPREGLLHATFRQNYGVSRMIIGRDHAGVGDFYGMFEAQTIFDKIPYAKEACPEPGKALLCEPLKIDWTFYCFKCDGMASLRTCPHSKEDRVLLSGTKLRKALSEGSDVPDHFGREEVLDILREYYGGLTEKVEVKMQRAASGSQM", "values": [{"measurement": "Km", "setting": "purified protein [2]", "value": "1770 ± 550", "unit": "µM"}, {"measurement": "kcat/Km", "setting": "purified protein [2]", "value": 160, "unit": "M⁻¹ s⁻¹"}, {"measurement": "Km", "setting": "purified protein [3]", "value": "793 ± 140", "unit": "µM"}, {"measurement": "kcat", "setting": "purified protein [3]", "value": 16, "unit": "s⁻¹"}, {"measurement": "kcat/Km", "setting": "purified protein [3]", "value": 20000, "unit": "M⁻¹ s⁻¹"}]}
